Assay results published in US6812017B2, “Mammalian secreted group IIF phospholipase A2” (Centre National de la Recherche Scientique - CNRS, priority 2000, dated 2004).
Values belong to the molecule of their own block, whether it stands above or below them.

Columns and labels:
[1] = from references [8], [16]; cited from earlier work
[2] = Ca2+-dependence of the hydrolysis of phosphatidylcholine vesicles; assay type: biochemical
Experimental: (§1) FIGS. 4A-4C represent the enzymatic properties of recombinant hGIIF sPLA2. […] Full experimental details are provided in materials and methods.
(§2) The Ca^2+ and pH dependencies of hGIIF sPLA2 were measured with POPC vesicles containing 1-palmitoyl-2-[1-^3H]palmitoyl-sn-glycero-3-phospho9choline vesicles and POPG vesicles containing 1-palmitoyl-2-[1-^3H]palmitoyl-sn-glycero-3-phosphoglyceril, respectively. Substrate specificity studies were carried out using a slightly modified assay with the fatty acid binding protein [7]. Reaction mixtures contained 30 μM POPC, POPG, or POPS (1-Palmitoyl-2-Oleoyl-sn-Glcero-3-phosphoserine) large […] vesicles (0.1 μm, prepared by extrusion as described [222[) in Hanks' balanced salt solution with 1 mM Ca^2+, 1 mM Mg^2+, 9.7 μg fatty acid binding protein, and 1 μm 11-dansyl-undecanoic acid at 37° C. Assays were calibrated by adding a known amount of oleic acid to the complete assay in the absence of enzyme.

[3] = pH-dependence of the hydrolysis of phosphatidylglycerol vesicles; assay type: biochemical
Experimental: as §1, §2

[4] = Substrate specificity, fatty acid binding protein assay on phospholipid vesicles; assay type: biochemical; conditions: 30 μM vesicles, 1 mM Ca2+, 37° C.
Experimental: as §1, §2

B1: hGX: human group X secreted phospholipase A2 (protein)
chain: MLLLLLPSLLLLLLLPGPGSGEASRILRVHRRGILELAGTVGCVGPRTPIAYMKYGCFCGLGGHGQPRDAIDWCCHGHDCCYTRAEEAGCSPKTERYSWQCVNQSVLCGPAENKCQELLCKCDQEIANCLAQTEYNLKYLFYPQFLCEPDSPKCD
preference for POPG versus POPC vesicles [1]: 10 fold

B2: hGV: human group V secreted phospholipase A2 (protein)
chain: MKGLLPLAWFLACSVPAVQGGLLDLKSMIEKVTGKNALTNYGFYGCYCGWGGRGTPKDGTDWCCWAHDHCYGRLEEKGCNIRTQSYKYRFAWGVVTCEPGPFCHVNLCACDRKLVYCLKRNLRSYNPQYQYFPNILCS
preference for POPG versus POPC vesicles [1]: 3 fold

B3: hGIIA sPLA2: human group IIA secreted phospholipase A2 (protein)
chain: MKTLLLLAVIMIFGLLQAHGNLVNFHRMIKLTTGKEAALSYGFYGCHCGVGGRGSPKDATDRCCVTHDCCYKRLEKRGCGTKFLSYKFSNSGSRITCAKQDSCRSQLCECDKAAATCFARNKTTYNKKYQYYSNKHCRGSTPRC
preference for POPG versus POPC vesicles [1]: greater than 10^5 fold

rate of POPC hydrolysis relative to rate of POPG [4]: ~6%
relative rates for the hydrolysis of POPG, POPS, and POPC vesicles [4]: highest with anionic POPG vesicles
B4: hGIIF sPLA2: novel human secreted group IIF phospholipase A2, recombinantly expressed in E. coli; 168 amino acid sequence, mature protein 148 residues (protein)
chain: MKKFFTVAILAGSVLSTAHGSLLNLKAMVEAVTGRSAILSFVGYGCYCGLGGRGQPKDEVDWCCHAHDCCYQELFDQGCHPYVDHYDHTIENNTEIVCSDLNKTECDKQTCMCDKNMVLCLMNQTYREEYRGFLNVYCQGPTPNCSIYEPPPEEVTCSHQSPAPPAPP
apparent KCa2+ ([2]; PC vesicles as substrate, hyperbolic dependence on Ca2+ concentration): 140 ± 40 µM
Ca2+ dependence of hydrolysis of phospholipid vesicles ([2]; phospholipid vesicles): strictly Ca^2+ dependent
rate of hydrolysis of phosphatidylglycerol vesicles versus pH [3]: increases with pH in the range 5-7
